Substitutions are numbered along the chain they refer to.
B1: TR01H074-E22Hh/none-Hi-Kn010G3/L0000-k0 (antibody, human IgG1, kappa, L234A L235A, N297A)
heavy: QVQLVESGGGVVQPGGSLRLSCAASGFTFSNAWMHWVRQAPGKGLEWVAQIKDKSQNYATYYAESVKGRFTISRADSKNSIYLQMNSLKTEDTAVYYCRYVHYAASYGVDIWGQGTTVTVSSASTKGPSVFPLAPSSKSTSGGTAALGCLVKDYFPEPVTVSWNSGALTSGVHTFPAVLQSSGLYSLSSVVTVPSSSLGTQTYICNVNHKPSNTKVDKKVEPKSCDKTHTCPPCPAPEAAGGPSVFLFPPKPKDTLMISRTPEVTCVVVDVSHEDPEVKFNWYVDGVEVHNAKTKPREEQYASTYRVVSVLTVLHQDWLNGKEYKCKVSNKALPAPIEKTISKAKGQPREPQVYTLPPSRCELTKNQVSLSCAVKGFYPSDIAVEWESNGQPENNYKTTPPVLDSDGSFFLVSKLTVDKSRWQQGNVFSCSVMHEALHNHYTQKSLSLSPDYKDDDDK
chain: EPKSSDKTHTCPPCPAPELLGGPSVFLFPPKPKDTLMISRTPEVTCVVVDVSHEDPEVKFNWYVDGVEVHNAKTKPREEQYNSTYRVVSVLTVLHQDWLNGKEYKCKVSNKALPAPIEKTISKAKGQPREPQVCTLPPSRDELTKNQVSLWCLVKGFYPSDIAVEWESNGQPENNYKTTPPVLDSDGSFFLYSKLTVDKSRWQQGNVFSCSVMHEALHNRYTQKSLSLSP
light: DIVMTQSPLSLPVTPGEPASISCRSSQSLVHSNRNTYLHWYQQKPGQAPRLLIYKVSNRFSGVPDRFSGSGSGTDFTLKISRVEAEDVGVYYCGQGTQVPYTFGQGTKLEIKRTVAAPSVFIFPPSDEQLKSGTASVVCLLNNFYPREAKVQWKVDNALQSGNSQESVTEQDSKDSTYSLSSTLTLSKADYEKHKVYACEVTHQGLSSPVTKSFNRGEC
notes: single-arm
B2: TR01H084-E22Hh/none-Hi-Kn010G3/L0271-k0 (antibody, human IgG1, kappa, L234A L235A, N297A)
heavy: B1 heavy with S106G
chain: B1 chain
light: B1 light with S28P, L29P, N35Q
notes: single-arm
B3: TR01H083-E22Hh/none-Hi-Kn010G3/L0000-k0 (antibody, human IgG1, kappa, L234A L235A, N297A)
heavy: B1 heavy with V11L, G16R, Q56N, S106G
chain: B1 chain
light: B1 light
notes: single-arm
B4: TR01H082-E22Hh/none-Hi-Kn010G3/L0258-k0 (antibody, human IgG1, kappa, L234A L235A, N297A)
heavy: B1 heavy with V11L, G16R, A75D, I81L, S106G, I111A
chain: B1 chain
light: B1 light with S28P, L29P, G94T
notes: single-arm
B5: TR01H082-E22Hh/none-Hi-Kn010G3/TR01L023-k0 (antibody, human IgG1, kappa, L234A L235A, N297A)
heavy: B1 heavy with V11L, G16R, A75D, I81L, S106G, I111A
chain: B1 chain
light: B1 light with L29P, Q42L, A48S, R50Q, G94T
notes: single-arm
B6: TR01H082-E22Hh/none-Hi-Kn010G3/L0259-k0 (antibody, human IgG1, kappa, L234A L235A, N297A)
heavy: B1 heavy with V11L, G16R, A75D, I81L, S106G, I111A
chain: B1 chain
light: B1 light with L29P, L38I, G94T
notes: single-arm
B7: TR01H082-E22Hh/none-Hi-Kn010G3/L0266-k0 (antibody, human IgG1, kappa, L234A L235A, N297A)
heavy: B1 heavy with V11L, G16R, A75D, I81L, S106G, I111A
chain: B1 chain
light: B1 light with S28P, L29P, G94V
notes: single-arm
B8: TR01H082-E22Hh/none-Hi-Kn010G3/L0267-k0 (antibody, human IgG1, kappa, L234A L235A, N297A)
heavy: B1 heavy with V11L, G16R, A75D, I81L, S106G, I111A
chain: B1 chain
light: B1 light with S25P, L29P, G94V
notes: single-arm
B9: TR01H082-E22Hh/none-Hi-Kn010G3/L0263-k0 (antibody, human IgG1, kappa, L234A L235A, N297A)
heavy: B1 heavy with V11L, G16R, A75D, I81L, S106G, I111A
chain: B1 chain
light: B1 light with L29P, L38I, G94A
notes: single-arm
B10: TR01H082-E22Hh/none-Hi-Kn010G3/TR01L018-k0 (antibody, human IgG1, kappa, L234A L235A, N297A)
heavy: B1 heavy with V11L, G16R, A75D, I81L, S106G, I111A
chain: B1 chain
light: B1 light with R24Q, S25A, Q27E, L29P, Q42L, A48S, R50Q
notes: single-arm
B11: TR01H100-E22Hh/none-Hi-Kn010G3/L0011-k0 (antibody, human IgG1, kappa, L234A L235A, N297A)
heavy: B1 heavy with V11L, G16R, T60S, A75D, I81L, S106G, I111A
chain: B1 chain
light: B1 light with S28P
notes: single-arm
B12: TR01H082-E22Hh/none-Hi-Kn010G3/L0260-k0 (antibody, human IgG1, kappa, L234A L235A, N297A)
heavy: B1 heavy with V11L, G16R, A75D, I81L, S106G, I111A
chain: B1 chain
light: B1 light with S25P, L29P, G94T
notes: single-arm
B13: TR01H083-E22Hh/none-Hi-Kn010G3/L0011-k0 (antibody, human IgG1, kappa, L234A L235A, N297A)
heavy: B1 heavy with V11L, G16R, Q56N, S106G
chain: B1 chain
light: B1 light with S28P
notes: single-arm
B14: TR01H082-E22Hh/none-Hi-Kn010G3/L0203-k0 (antibody, human IgG1, kappa, L234A L235A, N297A)
heavy: B1 heavy with V11L, G16R, A75D, I81L, S106G, I111A
chain: B1 chain
light: B1 light with L29P, L38I
notes: single-arm
B15: TR01H082-E22Hh/none-Hi-Kn010G3/L0000-k0 (antibody, human IgG1, kappa, L234A L235A, N297A)
heavy: B1 heavy with V11L, G16R, A75D, I81L, S106G, I111A
chain: B1 chain
light: B1 light
notes: single-arm
B16: TR01H084-E22Hh/none-Hi-Kn010G3/L0201-k0 (antibody, human IgG1, kappa, L234A L235A, N297A)
heavy: B1 heavy with S106G
chain: B1 chain
light: B1 light with S28P, L29P
notes: single-arm
B17: TR01H084-E22Hh/none-Hi-Kn010G3/L0011-k0 (antibody, human IgG1, kappa, L234A L235A, N297A)
heavy: B1 heavy with S106G
chain: B1 chain
light: B1 light with S28P
notes: single-arm
B18: TR01H083-E22Hh/none-Hi-Kn010G3/L0262-k0 (antibody, human IgG1, kappa, L234A L235A, N297A)
heavy: B1 heavy with V11L, G16R, Q56N, S106G
chain: B1 chain
light: B1 light with S28P, L29P, G94A
notes: single-arm
B19: TR01H076-E22Hh/none-Hi-Kn010G3/L0000-k0 (antibody, human IgG1, kappa, L234A L235A, N297A)
heavy: B1 heavy with I111Y
chain: B1 chain
light: B1 light
notes: single-arm
B20: TR01H081-E22Hh/none-Hi-Kn010G3/L0000-k0 (antibody, human IgG1, kappa, L234A L235A, N297A)
heavy: B1 heavy with V11L, G16R, S106G
chain: B1 chain
light: B1 light
notes: single-arm
B21: TR01H083-E22Hh/none-Hi-Kn010G3/L0222-k0 (antibody, human IgG1, kappa, L234A L235A, N297A)
heavy: B1 heavy with V11L, G16R, Q56N, S106G
chain: B1 chain
light: B1 light with L29P, L38I, H39Q, G94Y
notes: single-arm
B22: TR01H081-E22Hh/none-Hi-Kn010G3/L0201-k0 (antibody, human IgG1, kappa, L234A L235A, N297A)
heavy: B1 heavy with V11L, G16R, S106G
chain: B1 chain
light: B1 light with S28P, L29P
notes: single-arm
B23: TR01H083-E22Hh/none-Hi-Kn010G3/L0212-k0 (antibody, human IgG1, kappa, L234A L235A, N297A)
heavy: B1 heavy with V11L, G16R, Q56N, S106G
chain: B1 chain
light: B1 light with S25P, L29P, G94Y
notes: single-arm
B24: TR01H082-E22Hh/none-Hi-Kn010G3/L0201-k0 (antibody, human IgG1, kappa, L234A L235A, N297A)
heavy: B1 heavy with V11L, G16R, A75D, I81L, S106G, I111A
chain: B1 chain
light: B1 light with S28P, L29P
notes: single-arm
B25: TR01H082-E22Hh/none-Hi-Kn010G3/TR01L024-k0 (antibody, human IgG1, kappa, L234A L235A, N297A)
heavy: B1 heavy with V11L, G16R, A75D, I81L, S106G, I111A
chain: B1 chain
light: B1 light with R24Q, S25A, Q27E, L29P, Q42L, A48S, R50Q, G94T
notes: single-arm
B26: TR01H081-E22Hh/none-Hi-Kn010G3/L0011-k0 (antibody, human IgG1, kappa, L234A L235A, N297A)
heavy: B1 heavy with V11L, G16R, S106G
chain: B1 chain
light: B1 light with S28P
notes: single-arm
B27: TR01H082-E22Hh/none-Hi-Kn010G3/L0262-k0 (antibody, human IgG1, kappa, L234A L235A, N297A)
heavy: B1 heavy with V11L, G16R, A75D, I81L, S106G, I111A
chain: B1 chain
light: B1 light with S28P, L29P, G94A
notes: single-arm
B28: TR01H084-E22Hh/none-Hi-Kn010G3/L0272-k0 (antibody, human IgG1, kappa, L234A L235A, N297A)
heavy: B1 heavy with S106G
chain: B1 chain
light: B1 light with S28P, N35Q
notes: single-arm
B29: TR01H082-E22Hh/none-Hi-Kn010G3/L0212-k0 (antibody, human IgG1, kappa, L234A L235A, N297A)
heavy: B1 heavy with V11L, G16R, A75D, I81L, S106G, I111A
chain: B1 chain
light: B1 light with S25P, L29P, G94Y
notes: single-arm
B30: TR01H083-E22Hh/none-Hi-Kn010G3/L0201-k0 (antibody, human IgG1, kappa, L234A L235A, N297A)
heavy: B1 heavy with V11L, G16R, Q56N, S106G
chain: B1 chain
light: B1 light with S28P, L29P
notes: single-arm
B31: TR01H081-E22Hh/none-Hi-Kn010G3/L0262-k0 (antibody, human IgG1, kappa, L234A L235A, N297A)
heavy: B1 heavy with V11L, G16R, S106G
chain: B1 chain
light: B1 light with S28P, L29P, G94A
notes: single-arm
B32: TR01H082-E22Hh/none-Hi-Kn010G3/L0264-k0 (antibody, human IgG1, kappa, L234A L235A, N297A)
heavy: B1 heavy with V11L, G16R, A75D, I81L, S106G, I111A
chain: B1 chain
light: B1 light with S25P, L29P, G94A
notes: single-arm
B33: TR01H084-E22Hh/none-Hi-Kn010G3/L0262-k0 (antibody, human IgG1, kappa, L234A L235A, N297A)
heavy: B1 heavy with S106G
chain: B1 chain
light: B1 light with S28P, L29P, G94A
notes: single-arm
B34: TR01H084-E22Hh/none-Hi-Kn010G3/L0000-k0 (antibody, human IgG1, kappa, L234A L235A, N297A)
heavy: B1 heavy with S106G
chain: B1 chain
light: B1 light
notes: single-arm
B35: TR01H084-E22Hh/none-Hi-Kn010G3/L0270-k0 (antibody, human IgG1, kappa, L234A L235A, N297A)
heavy: B1 heavy with S106G
chain: B1 chain
light: B1 light with N35Q
notes: single-arm
B36: TR01H082-E22Hh/none-Hi-Kn010G3/L0011-k0 (antibody, human IgG1, kappa, L234A L235A, N297A)
heavy: B1 heavy with V11L, G16R, A75D, I81L, S106G, I111A
chain: B1 chain
light: B1 light with S28P
notes: single-arm

Target: T1, soluble human CD3ε chain (human, UniProt P07766 23-126, limits assumed)
T1 construct: the text says soluble human CD3ε chain; also called human CD3 epsilon chain
Assay: SPR (Biacore)

T1 sequence (P07766 23-126 limits assumed): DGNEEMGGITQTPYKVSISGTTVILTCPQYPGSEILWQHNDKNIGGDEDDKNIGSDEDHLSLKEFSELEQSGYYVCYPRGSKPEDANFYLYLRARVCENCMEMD

Binder | Kd [nM]
B1 | 29.1
B2 | 27.6
B3 | 6.83
B4 | 47
B5 | 42.5
B6 | 50.7
B7 | 22.9
B8 | 22.9
B9 | 30.9
B10 | 47.2
B11 | 62.5
B12 | 45.3
B13 | 6.7
B14 | 40.7
B15 | 73.7
B16 | 16.5
B17 | 19.8
B18 | 2.45

Binder | Kd [nM]
B19 | 47.8
B20 | 15.6
B21 | 9.42
B22 | 9.46
B23 | 0.0586
B24 | 44.9
B25 | 47.6
B26 | 13.5
B27 | 39.8
B28 | 31
B29 | 4.75
B30 | 4.42
B31 | 5.76
B32 | 34.4
B33 | 8.51
B34 | 21.3
B35 | 27.6
B36 | 59.5
